# B1: hNTCP: human NTCP receptor (SEQ ID NO: 4) (protein, listed as Homo sapiens)
# chain: MEAHNASAPFNFTLPPNFGKRPTDLALSVILVFMLFFIMLSLGCTMEFSKIKAHLWKPKGLAIALVAQYGIMPLTAFVLGKVFRLKNIEALAILVCGCSPGGNLSNVFSLAMKGDMNLSIVMTTCSTFCALGMMPLLLYIYSRGIYDGDLKDKVPYKGIVISLVLVLIPCTIGIVLKSKRPQYMRYVIKGGMIIILLCSVAVTVLSAINVGKSIMFAMTPLLIATSSLMPFIGFLLGYVLSALFCLNGRCRRTVSMETGCQNVQLCSTILNVAFPPEVIGPLFFFPLLYMIFQLGEGLLLIAIFWCYEKFKTPKDKTKMIYTAATTEETIPGALGNGTYKGEDCSP
# Legend:
# [1] = system: porcine NTCP; assay: Guide RNA efficiency to cause Indel mutations in porcine kidney fibroblasts (CRISPR/Cas9); assay type: cell-based; settings: modified PX330 plasmid
# Protocol: Here, porcine kidney fibroblasts were transfected with a modified PX330 plasmid, carrying an additional Puromycin selection cassette, porcine NTCP guide RNA sequence and Cas9 nuclease. Several guide RNA sequences (18 bp long) were tested for their efficiency to cause Insertion/Deletion (Indel) mutations.
# [2] = system: HBV; assay: HBV infection of HepG2 cells transfected with NTCP variants, HBeAg ELISA of supernatant; assay type: cell-based, Hepatitis B virus; settings: HepG2 transfected with NTCP plasmid, HBV MOI 300, days 4, 7 and 10 after infection, FIG. 5A
# Protocol: However, neither of these approaches was successful with porcine NTCP. […] Therefore, these human cells are a valuable tool to analyze the effect of different NTCP muteins in a human cell culture system.
# HepG2 cells were transfected with plasmids coding for different variants of NTCP: human (hNTCP), porcine (pNTCP) or chimeric (pNTCP w/ hAA). After transfection, the cells were incubated for three days with 2% DMSO before they were infected with HBV at an MOI of 300. The supernatant was collected at days 4, 7 and 10 after infection and analyzed for the viral protein HBeAg by ELISA.
# [3] = system: HBV; assay: Southern Blot analysis of HBV cccDNA in PPH; assay type: cell-based, Hepatitis B virus; settings: day 4 after infection with HBV, FIG. 4
# Protocol: (§1) Primary porcine hepatocytes (PPH) were isolated from a pig liver less than 3 h after slaughter and kept in culture: For infection experiments, the cells were seeded in a 24 well plate and for Southern Blot experiments into 6 well plates. The next day, the cells were transduced with adenovirus at an MOI of 1 or 5 (see FIG. 2) and cultured in DMEM-F12 comprising […]. The sequences of the adenoviruses are shown in SEQ ID NO: 6 for Ad-hNTCP, SEQ ID NO: 7 for Ad-phNTCP and SEQ ID NO: 8 for Ad-hNTCP-tdTomato.
# (§2) On day 4 after isolation (day 3 after transduction), the cells were infected with HBV (genotype D, serotype ayw) in DMEM-F12 with 4% PEG6000 with an MOI of 1000.
# On days 3 and 5 after HBV infection, samples were taken for HBeAg measurements. Medium was changed on day 3 after HBV infection. The 6 well plate for the Southern Blot analysis was frozen at −80° C. on day 4 after HBV infection and used for a Hirt extraction with subsequent Southern Blot. To detect protein-free forms of HBV DNA including cccDNA, a modified Hirt extraction procedure was used (Yan et al. 2012). Intracellular capsid-associated DNA was prepared as described (Ko et al. 2014). Viral DNA forms were separated on an agarose gel, transferred onto a nylon membrane, and hybridized with a digoxigenin-labeled HBV-specific probe (Ko et al. 2014). DNA signal was detected by DIG Luminescent Detection Kit (Roche).
# [4] = system: HBV; assay: qPCR of HBV rcDNA and cccDNA in PPH; assay type: cell-based, Hepatitis B virus; settings: day 5 after infection, FIG. 3
# Protocol: as §1, §2
# On day 5 after infection, the 24 well plates were lysed, frozen and then DNA was isolated and analyzed for rcDNA or cccDNA using qPCR. In detail, total cellular DNA was extracted using NucleoSpin Tissue kit (Macherey Nagel). For selective cccDNA PCR, isolated DNA was treated with 5 units of T5 exonuclease (NEB, Frankfurt, Germany) for 30 min in 10 μl reaction volume (Xia 2017b) followed by heat-inactivation at 95° C. for 5 min and 4-fold dilution with distilled water. Two different primer sets were used to detect total intracellular HBV DNA (HBV1844F: 5′-[…]-3′ (SEQ ID NO: 9) and HBV1745R: 5′-GGAGGGATACATAG (SEQ ID NO: 10).
Molecule,Indel frequency [1],susceptibility of HepG2 cells to HBV (HBeAg in supernatant) [2],HBV cccDNA in Southern Blot [3],HBV cccDNA in PPH [4],HBV rcDNA in PPH [4]
NTCP G3: guide RNA sequence GAAGGACAAGGTGCCCTA (SEQ ID NO: 22) (expressed or natural sequence),highest,–,–,–,–
B1,–,susceptible to HBV,show HBV cccDNA,drastic increase,drastic increase

# From US20210269499A1, “HEPATITIS B AND/OR HEPATITIS D-PERMISSIVE CELLS AND ANIMALS” (TECHNISCHE UNIVERSITAET MUENCHEN, priority 2018, published 2021)
